# Reference: patent US7316915 (TANOX, dated 2008)
# Where no end group is shown, it is not given here.
# T1: Bak (expressed in yeast, used as lysate) (Homo sapiens (Human), UniProt Q16611 1-211, limits assumed)
# T1 construct: also called full-length Bak
# T1 sequence: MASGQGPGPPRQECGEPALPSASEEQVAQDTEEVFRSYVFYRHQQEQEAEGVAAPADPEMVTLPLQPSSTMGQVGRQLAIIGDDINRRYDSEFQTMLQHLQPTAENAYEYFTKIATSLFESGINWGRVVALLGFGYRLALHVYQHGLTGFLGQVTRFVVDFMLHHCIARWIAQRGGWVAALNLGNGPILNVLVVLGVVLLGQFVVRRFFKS
# T2: BakΔ3 (N-terminal deletion mutant of Bak, amino acids 96-210 of full-length Bak) (Homo sapiens (Human), UniProt Q16611 96-211)
# T2 construct: Produced in Sf9 cells by baculovirus and used as an NP-40 cell extract
# T2 sequence: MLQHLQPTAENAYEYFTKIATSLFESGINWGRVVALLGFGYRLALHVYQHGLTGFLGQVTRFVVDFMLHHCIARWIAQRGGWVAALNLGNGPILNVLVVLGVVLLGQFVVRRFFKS
# B1: gst fusion protein containing full-length BHRF-1 (other)
# chain: MAYSTREILLALCIRDSRVHGNGTLHPVLELAARETPLRLSPEDTVVLRYHVLLEEIIERNSETFTETWNRFITHTEHVDLDFNSVFLEIFHRGDPSLGRALAWMAWCMHACRTLCCNQSTPYYVVDLSVRGMLEASEGLDGWIHQQGGWSTLIEDNIPGSRRFSWTLFLAGLTLSLLVICSYLFISRGRH
# notes: not shown: glutathione-S-transferase (gst)
# B2: gst fusion protein containing BBP-Loop1 (N-terminal 42 amino acid portion of BBP) (other)
# chain: MAASSQGNFEGNFESLDLAEFAKKQPWWRKLFGQESGPSAEK
# modifications: not fully specified (N-terminus); also: fused to glutathione-S-transferase (GST), not in chain
# notes: It was subcloned into pGEX-5X in frame with gst; also called BBP-L1; gst-BBP-L1; not shown: glutathione-S-transferase (gst) as encoded by vector pGEX-5X (Pharmacia)
# B3: gst fusion protein containing BBP-Loop2 (internal loop of BBP, amino acids 86 through 133) (other)
# chain: HTGYIKVDWQRVEKDMKKAKEQLKIRKSNQIPTEVRSKAEEVVSFVKK
# modifications: not fully specified (N-terminus); also: fused to glutathione-S-transferase (GST), not in chain
# notes: It was subcloned into pGEX-5X in frame with gst; also called BBP-L2; gst-BBP-L2; not shown: glutathione-S-transferase (gst) as encoded by vector pGEX-5X (Pharmacia)
# B4: BBP expressed as a fusion protein with the activation domain (AD) of GAL4 (other, yeast)
# chain: ANFNQSGNIADSSLSFTFTNSSNGPNLITTQTNSQALSQPIASSNVHDNFMNNEITASKIDDGNNSKPLSPGWTDQTAYNAFGITTGMFNTTTMDDVYNYLFDDEDTPPNPKKEMAASSQGNFEGNFESLDLAEFAKKQPWWRKLFGQESGPSAEKYSVATQLFIGGVTGWCTGFIFQKVGKLAATAVGGGFFLLQLANHTGYIKVDWQRVEKDMKKAKEQLKIRKSNQIPTEVRSKAEEVVSFVKKNVLVTGGFFGGFLLGMAS
# notes: range 768-881; Yeast two-hybrid prey; also called BBP-AD
# Key:
# [1] = target: T1, Bak (expressed in yeast, used as lysate); test: GST fusion on glutathione-Sepharose column, yeast lysate expressing Bak, Western blot
# [2] = target: T2, BakΔ3 (N-terminal deletion mutant of …); test: GST pull-down from Sf9 extract, immunoblot with anti-Bak
# Experimental: After allowing the insect cells to attach to the plate for 1 hour, the cells were infected at a multiplicity of infection of 5 with baculovirus expressing bakΔ3. […] After allowing the Sf9 cells to express the BakΔ3, the cells were harvested, centrifuged, and washed with 1×PBS. The pellet was collected into a single 15 ml tube and washed again with 1×PBS. […] This was left overnight at 4° C. with gentle shaking.
# The SEPHAROSE®-protein complexes were collected by centrifugation, washed three times with the buffer described above, then suspended in 100 ml each of 1X SDS-PAGE buffer. […] Complexes containing the Bak derivative were detected using rabbit IgG anti-Bak antibodies and the blot was developed using enhanced chemiluminescence (ECL) and anti-rabbit IgG/peroxidase conjugate.
# [3] = target: T3, BBP expressed as a fusion protein with the binding domain (BD) of GAL4 (yeast; human, UniProt P04386 1-147); test: yeast two hybrid (GAL4 AD and BD fusions)
# T3 construct: range 1-147; also called BBP-BD
# [4] = target: T4, Bak expressed as a fusion protein with the binding domain (BD) of GAL4 (yeast, UniProt P04386 1-147); test: yeast two hybrid (GAL4 AD and BD fusions)
# T4 construct: range 1-147; Yeast two-hybrid bait; also called GAL4-Bak fusion protein
# [5] = target: Bax expressed as a fusion protein with the binding domain (BD) of GAL4 (yeast, UniProt P04386 1-147; Q07812 1-192, limits assumed); test: yeast two hybrid
# [6] = target: Bcl2 expressed as a fusion protein with the binding domain (BD) of GAL4 (yeast, UniProt P04386 1-147; P10415 1-239, limits assumed); test: yeast two hybrid
binder,measurement,setting,value
B1,binding result,[1],binds
B2,binding result,[1],binds
B3,binding result,[2],no binding
same,binding result,[1],binds
B4,binding result,[3],binds
same,binding result,[4],binds
same,binding result,[5],no binding
same,binding result,[6],no binding
